Assay results: patent US7135326B2, “UDP-glucosyltransferases” (E. I. du Pont de Nemours and Company, priority 2002, dated 2006)
Values belong to the molecule of their own block, whether it stands above or below them.

Experiments:
Type in all cases: biochemical
[1] = Ratio of enzyme activity with pHBA versus sinapic acid (spectrophotometric assays); conditions: for rate of pHBA glucosylation relative to sinapic acid: cell-free extract; for Ratio of Activity pHBA/SA: Table 4, cell-free extracts, 10 mM pHBA or sinapic acid, 25° C.; for times more active with sinapic acid than pHBA / pHBA/SA ratio of enzyme activity: crude extract
Protocol: (§1) The second assay is based on the increase in absorbance at 368 nm that accompanies the formation of the glucose ester of sinapic acid. The experimental conditions were the same as those described above, but the test substrate was sinapic acid and product formation was calculated using an extinction coefficient of 5,570 M^−1 that was obtained with the authentic chemically synthesized compound under identical conditions.

[2] = Continuous spectrophotometric UDP-glucosyltransferase assay, formation of pHBA glucose ester at 304 nm, E. coli cell-free extracts; conditions: crude extract, 10 mM UDP-glucose, pH 7.3, 25° C.
Protocol: (§2) For protein production, the resulting recombinant strains were grown at 22° C. in 50 mL of LB media that contained kanamycin (50 μg/mL). At an A600 nm of ˜0.6, isopropyl-1-thio-β-D-galactopyranoside was added to a final concentration of 0.2 mM. Following a 22-h induction period at the same temperature, the cells were harvested by centrifugation and stored at −80° C. for subsequent manipulation as described below.
(§3) The frozen cell pellets were resuspended in 1.0 mL of a solution containing 100 mM Tris-HCl (pH 7.7), 5 mM MgSO4, 1 mM dithiothreitol, 0.03 mg/mL DNAse I, 0.5 mM phenylmethanesulfonyl fluoride, and passed once through a French pressure cell at 20,000 psi. Debris was removed by centrifugation (43,000×g, 60 min), and the resulting cell-free extracts, containing ˜15 mg of protein per mL, were supplemented with 5% glycerol and stored at −80° C. for subsequent measurements of enzyme activities. Protein concentrations were determined by the Bradford Method using bovine serum albumin as a standard.

[3] = Continuous spectrophotometric UDP-glucosyltransferase assay, formation of glucose ester of sinapic acid at 368 nm, E. coli cell-free extracts; conditions: crude extract, 10 mM UDP-glucose, pH 7.3, 25° C.; for initial rate of product formation, 1 mM SA: 1 mM sinapic acid; for initial rate of product formation, 5 mM SA: 5 mM sinapic acid; for initial rate of product formation, 10 mM SA: 10 mM sinapic acid
Protocol: as §2, §3, §1

substrate preference for pHBA over sinapic acid ([1]; 10 mM substrate concentration): 4.88 fold
rate of pHBA glucosylation relative to sinapic acid ([1]; 10 mM substrate): at least six times faster
Ratio of Activity pHBA/SA [1]: 6.35
B1: Citrus GT: Citrus mitis UDP-glucosyltransferase, SEQ ID NO:31 (protein, listed as Citrus mitis)
chain: MGTESLVHVLLVSFPGHGHVNPLLRLGRLLASKGFFLTLTTPESFGKQMRKAGNFTYEPTPVGDGFIRFEFFEDGWDEDDPGRRDLDQYMAQLELIGKQVIPKIIKKSAEEYRPVSCLINNPFIPWVSDVAESLGLPSAMLWVQSCACFAAYYHYFHGLVPFPSEKEPEIDVQLPCMPLLKHDEVPSFLHPSTPYPFLRRAILGQYENLGKPFCILLDTFYELEKEIIDYMAKICPIKPVGPLFKNPKAPTLTVRDDCMKPDECIDWLDKKPPSSVVYISFGTVVYLKQEQVEEIGYALLNSGISFLWVMKPPPEDSGVKIVDLPDGFLEKVGDKGKVVQWSPQEKVLAHPSVACFVTHCGWNSTMESLASGVPVITFPQWGDQVTDAMYLCDVFKTGLRLCRGEAENRIISRDEVEKCLLEATAGPKAAELKESALKWKQEAEEAVADGGSSDRNIQAFVDEVRRRSVGIITSSKSKSIHRVKELVEKTATATANDKVELVES

times more active with sinapic acid than pHBA ([1]; 10 mM substrate): only about twice as active
Ratio of Activity pHBA/SA [1]: 0.454
B2: GT 3: Arabidopsis UDP-glucosyltransferase, GenBank AL161541.2, SEQ ID NO:8 (protein, listed as Arabidopsis thaliana)
chain: MMFETCPSPNPIHVMLVSFQGQGHVNPLLRLGKLIASKGLLVTFVTTELWGKKMRQANKIVDGELKPVGSGSIRFEFFDEEWAEDDDRRADFSLYIAHLESVGIREVSKLVRRYEEANEPVSCLINNPFIPWVCHVAEEFNIPCAVLWVQSCACFSAYYHYQDGSVSFPTETEPELDVKLPCVPVLKNDEIPSFLHPSSRFTGFRQAILGQFKNLSKSFCVLIDSFDSLEQEVIDYMSSLCPVKTVGPLFKVARTVTSDVSGDICKSTDKCLEWLDSRPKSSVVYISFGTVAYLKQEQIEEIAHGVLKSGLSFLWVIRPPPHDLKVETHVLPQELKESSAKGKGMIVDWCPQEQVLSHPSVACFVTHCGWNSTMESLSSGVPVVCCPQWGDQVTDAVYLIDVFKTGVRLGRGATEERVVPREEVAEKLLEATVGEKAEELRKNALKWKAEAEAAVAPGGSSDKNFREFVEKLGAGVTKTKDNGY
initial rate of product formation, 1 mM pHBA [2]: 9.4 μM per min
initial rate of product formation, 5 mM pHBA [2]: 42.3 μM per min
initial rate of product formation, 10 mM pHBA [2]: 64.9 μM per min
initial rate of product formation, 1 mM SA [3]: 146 μM per min
initial rate of product formation, 5 mM SA [3]: 158 μM per min
initial rate of product formation, 10 mM SA [3]: 143 μM per min
pHBA/SA ratio of enzyme activity ([1]; 1 mM substrate): 0.064
pHBA/SA ratio of enzyme activity ([1]; 5 mM substrate): 0.268
pHBA/SA ratio of enzyme activity ([1]; 10 mM substrate): 0.454

rate of pHBA glucosylation relative to sinapic acid ([1]; 10 mM substrate): over an order of magnitude greater
Ratio of Activity pHBA/SA [1]: 13.2
B3: Eucalyptus GT: Eucalyptus grandis UDP-glucosyltransferase, SEQ ID NO:22 (protein, listed as Eucalyptus grandis)
chain: MGSEALVHVLLVSFPGQGHVNPLLRLGKRLASKGLLVTFTTPESIGKAMRKASNIGEELSPVGDGFIRFEFFEDGWDEDEIRRQDLDQYLPQLEKVGKVLIPEMIRRNAEQGRPISCLINNPFIPWVSDVADSLGLPSAMLWVQSCACFTSYYYYYHGLVPFPSETAMEIDVQLPCMPLLKHDEVPSFLYPTTPYPFLRRAIMGQYKNLDKPFCILMDTFQELEHEIIEYMSKISPIKTVGPLFKNPKAPNATVKGDFMKADDCVGWLDSKPASSIVYVSFGSVVYLKQDQWDEIAYGLLNSGVNFLWVMKPPHKDSGYEVLKMPEGFLEKAGDRGKVVQWSPQEQVLAHPSVACFVTHCGWNSTMEALTSGMPVVAFPQWGDQVTDAKYLVDVFKVGVRMCRGEAENKLITRDVVEQCLREATSGPKAEEMKQNAMKWSAAAEAAVAEGGSSDRNIQAFVDEVKRRSLEVLAASGKSTANGGADLANKVAANGVAELGEPKVNGELKVVS

times more active with sinapic acid than pHBA ([1]; 10 mM substrate): at least 50 times
Ratio of Activity pHBA/SA [1]: 0.018
B4: SA-GT: Brassica napus UDP-glucosyltransferase (GenBank Accession No. AF287143), SEQ ID NO:4 (protein, listed as Brassica napus)
chain: MELSSSPLPPHVMLLSFPGQGHVNPLLRLGKLLASKGLLVTFVTTESWGKKMRTANKIQDRALKPIGKGYLRFDFFDDGLPEDDDASRTNLTILRPQLELVGQQEIKNLVKRYKEVMKQPVTCLINNPFVSWVCDVAEDLQIPCAVLWVQSCACLASYYYYHHKLVDFPTETDPKIDVQIPCMPVLKHDEIPSFIHPFSPYSGLREVIIDQIKRLHKPFVVLIDTFYSLEKDIIDHMTNLSRTGVVRPLGPLYKMAKTLICDDIKGDMSETRDDCMEWLDSQPVSSVVYISFGTMAYVTQEQISEIAFGVLNAGVSFLWVIRQQELGVNKERHVLPEELKGKGKVVEWCSQEKVLAHPSVVCFVTHCGWNSTMEALSSGVPTVCFPQWGDQVTDAAYMSDVFKTGVRLSRGETEERVVPREEVAERLREVTKGEKATELKKNALKWKEEAEAAVARRGSSDRNLDEFVEKLCVKHVAKQNGSLNQNGSIQKLLLQKS
initial rate of product formation, 1 mM pHBA [2]: 0.20 μM per min
initial rate of product formation, 5 mM pHBA [2]: 0.59 μM per min
initial rate of product formation, 10 mM pHBA [2]: 1.03 μM per min
initial rate of product formation, 1 mM SA [3]: 118 μM per min
initial rate of product formation, 5 mM SA [3]: 82 μM per min
initial rate of product formation, 10 mM SA [3]: 55.6 μM per min
pHBA/SA ratio of enzyme activity ([1]; 1 mM substrate): 0.002
pHBA/SA ratio of enzyme activity ([1]; 5 mM substrate): 0.007
pHBA/SA ratio of enzyme activity ([1]; 10 mM substrate): 0.018

times more active with sinapic acid than pHBA ([1]; 10 mM substrate): at least 80 times
B5: GT 4: Arabidopsis UDP-glucosyltransferase, GenBank AL161541, SEQ ID NO:12 (protein, listed as Arabidopsis thaliana)
chain: MNPSRHTHVMLVSFPGQGHVNPLLRLGKLIASKGLLVTFVTTEKPWGKKMRQANKIQDGVLKPVGLGFIRFEFFSDGFADDDEKRFDFDAFRPHLEAVGKQEIKNLVKRYNKEPVTCLINNAFVPWVCDVAEELHIPSAVLWVQSCACLTAYYYYHHRLVKFPTKTEPDISVEIPCLPLLKHDEIPSFLHPSSPYTAFGDIILDQLKRFENHKSFYLFIDTFRELEKDIMDHMSQLCPQAIISPVGPLFKMAQTLSSDVKGDISEPASDCMEWLDSREPSSVVYISFGTIANLKQEQMEEIAHGVLSSGLSVLWVVRPPMEGTFVEPHVLPRELEEKGKIVEWCPQERVLAHPAIACFLSHCGWNSTMEALTAGVPVVCFPQWGDQVTDAVYLADVFKTGVRLGRGAAEEMIVSREVVAEKLLEATVGEKAVELRENARRWKAEAEAAVADGGSSDMNFKEFVDKLVTKHVTREDNGEH
